# Reference: the nanobody polyreactivity screen of Harvey et al. (2022)
# Assay: yeast display, Sf9 membrane polyspecificity reagent, FACS + sequencing; frameworks hold sequencing errors
# Procedure, shortened: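 In a synthetic yeast display library (Saccharomyces cerevisiae BJ5465), nanobody expression was induced with galactose for 36–48 hours. FACS gates were set low and high (top ~1%) using anti-HA fluorescence for expression and streptavidin fluorescence for binding of the Sf9 membrane reagent. Each polyreactivity label is drawn from the gate of origin.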
row,Sequence,polyreactivity (PSR sort gate)
1,QVQLVESGGGLVQAGGSLRLSCAASGFTFVQYAMGWYRQAPGKERELVATISKSGGITYYADSVKGRFKISRDYAKNTVYLQMNSLKPEDTAVYYCAASWYYSSRGFHATWGHDYWGQGTQVTVSS,low polyreactivity
2,QVQLVESGGGLVQAGGSLRLSCAASGRTFYKNAMGWYRQAPGKERELVAAISYGGGSTYYADSVKGRFTISRDNAKNTVYLQMISLKPEDTAVYYCATQLPFRKPWHDYWGQGTQVTVSS,high polyreactivity
3,QVQLVESGGGLVQAGGSLRLSCAASGRTSRVNAMGWYRQAPGKERELVATITKSGGSTFYADSVKGRFTISRDNPKNTVYLQMNILKPEDTAVYYCNAGGVRATKGYDYWGQGTQVTVSS,low polyreactivity
4,QVQLVESGGGLVQAGGSLRLSCAASGGTFTFYAMGWYRQAPGKERELVATINWSGGSTYYADSVKGRFTISRDNAKNTVYLQMNSLKPEDTAVYYCNAAWPYKSVEYWGQGTQVTVSS,low polyreactivity
5,QVQLVESGGVLVQAGGSLRLRCAASVRNYNSYMGWYRPAPGKERELVAAISWSSGTSTYYADSVKGRFTISRDNAKNTVYLQMNSLKPEDTEVYYCNAVDYFGPYPEEYDYWGQGTQVTVSS,low polyreactivity
6,QVQLVESGGGLVQAGGSLRLSCAASGSIFSHNAMGWYRQAPGKERELVAAITGIVGSTYYADSVKGRFTISRDTAKNTVYLQMNSLNPEDTAVYYCAADNPVPEGSRTFEYWGQGTQVTVSS,low polyreactivity
7,QVQLVESGGGLVQAGGSLRLSCAASGFTFYRYAMGWYRQAPGKERELVAALSGSGGSTYYADSVKGPFTISRDNAKTTVYLQMNSLNPEDTAVYYCNTVWFYGAKYDYWGQGTQVTVSS,high polyreactivity
8,QVQLVESGGGLVQAGGSLRLSCAASGRILGSYAMGWYRQAPGKERELVAAISRGGGRTYYADSVKGRFTISRDNAKNTVYLQMNSLNPEDTAVYYCNAPVTGSSSYFSQHFDYWGQGTQVTVSS,high polyreactivity
9,QVQLVESGGGLVQAGGRLRLSCAATGRTFLAYAMGWYREAPGKERELVAAITIGGGTYADSVKGRFTISRDNAKNTVYLQMNSLKQEDTAVYYCAKPGWYDGDYWGQGTQVTVSS,low polyreactivity
10,QVQLVESGGGLVQAGGSLRLSCAASGFIFGVYAMGWYRQAPGKERELVAAITGRAASTYYADSVKGRFTISRDNAKNTVYLQMNSLKPEDTAVYYCAARKRYRPGERYEYWGQGTQVTVSS,high polyreactivity
11,QVQLVESGGGLVQAGGSLRLSCAASGRIFIHYAMGWYRQAPGKERELVAAITFNGGSTYYADSVKGRFTISRDNAKNTVYLQMNSLKPEDTAVYYCAARLSKRSGYYYWGQGTQVTVSS,high polyreactivity
12,QDQLVESGGGLVQAGGILRLSCAASGRTFLPNAMGWYRQSPGKEREFVASINGDGTTYYADSVKGRFTISRDNAKNTVYLQMNSLKPEDTAVYYCAKDRDFSSPPTESGFDFWGQGTQVTVSS,low polyreactivity
13,QVQLVESGGGLVQAGGSLRLSCAASGSIFKYYAMGWYRQAPGKERELVAAISRSGSNTYYADSVKGRFTISRDNPKNTVYLQMNSLKPEDTAVYYCAAVKGPERPTSPYDYWGQGTQVTVSS,high polyreactivity
14,QVQLVESGGGLVQAGGSLRLSCADSGSTFWYDMGWYRQAPGKERELVAAISDAGSTYYADSVKGRFTISRDNAKITVYLQMNSLKPEDTGFYFCAADGVYWRWYLYTFWMDYWGQGTQVTVSS,low polyreactivity
15,QVQLVESGGGLVQAGGSLRLSCAASGNIFLYYAMGWYIPAPGKEREFVSDIDSSGASTYYADSVKGRFTISRDNAKNTVYLQMNSLKPEDTAVYYCAAEFHWWYAGYDYGYWGQGTQVTVSS,low polyreactivity
16,QVQLVESGGGLVQAGGSLRLSCAASGRIFFSYAMGWYRQAPGKERELVAAINGRGGSTYYADSVKGRFTISRDNAKNTVYLQMNSLKPEDTAVYYCAATAFSKGSSWKPYYYWGQGTQVTVSS,low polyreactivity
17,QVQLVESGGGLVQAGGSLRLSSAASGLTYSVYAMGWYRQAPGKERELVAAISGSGGSTYYADSVKGRFTISRDNAKNTVYLQMNSLKPEDTAVYYCAARYDVHYDGMDYWGLGTQVTVSS,low polyreactivity
18,QVQLVESGGGLVQAGGSLRLSCAASGIIFPYYAMGWYRPAPGKERELVAASTGRGTSTYADSVKGRFTISRDNAKNTVYLQMNSRKPEDTAVYYCAAVGWFADFLFSDINGYYWGQGTQVTVSS,low polyreactivity
19,QVQLVESGGGLVQAGGSLRLSCAASGRIFFAYAMGWYRQAPGKERELVAAIRFSGGTTYYADSVKGRLTFSRDNAKNTVYLQMNSLKQEDTAVYYFAAGRRRSSSGYGYWGKGTQVTVSS,high polyreactivity
20,QVQLVESGGGLVQAGGSLRLSCAASGIILPYYVMGWYRQAPGKEREFVADITWSGGSTYYADSVKARFTISRDNAKNTVYLQMNSLKPEDTAVYYCAAEGQWYYFFDMDYWGQGTQVTVSS,high polyreactivity

row,Sequence,polyreactivity (PSR sort gate)
1,QVQLVESGGGLVQAGGSLRLSCAASGRIFQWYTMGWYRQAPGKERELVATITDGGSTYYADSVKGRFTISRDNAKNTVYLQMNSLKPEDTAVYYCAARKIGSRRLLYPYYIFGYWGQGTQVTVSS,high polyreactivity
2,QVQLVESGGGLVQAGGSLRLSCAASGRIFYHYAMGWYRQAPGKERELVATISASGSRTSYADSVKGRFTISRDNAKNTVYLQMNSLKPEDTGVYYCAADAPFWYGLDYWGQGTQVTVSS,high polyreactivity
3,QVQLVESGGGLVQAGGSLRLSCAASGRTIGLNGMGWYRQAPGKERELVAGISLSGGSTNYADSVKGRFTISRDNAKNTVYLQMNSLKPEDTAVYYCAADFVYYVVNDFGWSYAYEYWGQGTQVTVSS,low polyreactivity
4,QVQLVESGGGLVQAGGSLRLSCAASGSTFEPYAMGWYRQAPGKERELVAAISSGGSTSYADSVKGRFTISRDNAKNTVYLQMNSLKPEDTAVYYCAKRWRSYRHEDYGYWGQGTQVTVSS,low polyreactivity
5,QVQLVESGGGLVQAGGSLRLSCAASGSTLRYNTMGWYRQAPGKERELVAAISVRGGSTYYADSVKGRFTISRDNAKNTVYLQMNSLKPEDTAVYYCARRIKLGQRQGGYYWGQGTQVTVSS,high polyreactivity
6,QVQLVESGVGLVQAGGSLRLSCAASGISFLVYAMGWYRQAPGKERELVAAISADAGGTYYADSVKGRFTISRDNAKNNVYFQMNSLKPEDTAVYYCNVDGRSDGDDYWGQGTQVTVSS,low polyreactivity
7,QVQLVESGGGLVQAGGSLRLSCAASGSIFVPYAMGWYRQAPGKERELVAAISSSTASTYYADSVKARFTISRDYAKNTVYFQMNCLKPEDTAVYYCNAEQWDYGVRVAHYDYWGQGTQVTVSS,low polyreactivity
8,QVQLVESGGGLVQAGGSLRLSCAASGRTFEGNAMGWYRQAPGKERELVAAITSGGRTNYADSVKGRFTISRDNAKNTVYLQMNSLKPEDTAVYYCAVETRDRSTYFPGQAYDYWGQGTQVTVSS,low polyreactivity
9,QVQLVESGGGLVQAGGSLRLRCAASGSIFLVNALGWYRQAPGKEWELVASITWRGGRTYYADSVKGRFTISRDTAKKTVYLQMNRLKPADTAVYYCSALNYRTGERLRYDYWGQGTQVTVSS,low polyreactivity
10,QVQLVESGGGLVQAGGSLRLSCAASGGTLDVYAMGWYRQAPGKEREFVAAISWSGGRTYYADSVKGRFTISRDNAKNTVYLQMNSLKPEDTAVYYCATRDRAGYYYWGQGTQVTVSS,high polyreactivity
11,QVQLVESGGGLVQAGGSLRLSCAASGFTFFLYAMGWYRQAPGKERELVARISSGRDTYYADSVKGRFTISRDNAKKTVYLQMNSLKPEDTAVYYCAVAFWFGYRYYYWGQGTQVTVSS,high polyreactivity
12,QVQLVESGGGLVQAGGSLRLSCAASGSIFGNYAMGWYRQAPGKEREFVAAITWIGGSSYYADSVKGRFTISRDNAKNTVYLQMHSLKPEDTAVYYCARTSYARYRNGWTYDHWGQGTQVTVSS,low polyreactivity
13,QVQLVESGGGLVQAGGSLRLSCAASGFTFYRYAMGWYRPAPGKERELVAAITRVGSTYYADSVKGRFTISRDNAKNTVYLQMNSLKPEDTAVYYCNARGTVPWYGYDYWGQGTQVTVSS,high polyreactivity
14,QVQLVESGGGLVQAGGSLRLSCAASGSIFQGYAMGWYRQAPGKERELVAAITYSGGRTYYADSVKGRFTISRDNAKNTVYLQMNSLKPEDTAVYYCAALTRRVKKYDYWGQGTQVTVSS,high polyreactivity
15,QVQLVESGGGLVQARGSLRLSCASSGRIFWRYAMRWYSQSPGKERELVAAISRSGGRTYYADSVKGRFTISRDNAKNTVYLQMISLKPEDTAVYYCAAKTGGQPGDYWGQGTQVTVSS,high polyreactivity
16,QVQLVESGGGLVQAGGSLRLSCAASGSTFLKYTMGWYRQAPRKDRELVAGITRSSRSTYYADSVKGRFTISRDNAKYTVYLQMNSLKPEDTAVYYCAATVYLYTDLAYYWFGYWGQGTQVTVAS,high polyreactivity
17,QVQLVESGAGLVQAGGSLRFSCAASGFIFVDNTMGWSSQAPGKEMELVAAISYSAGSTYYADSVKGRFTISRDNAMNTVYLQMNCLKPEDTAVYDCAAQHSWVTSYLYSYDYWGQGTQVTVSS,low polyreactivity
18,QVQLVESGGGLVQAGGSLRLSCAASGSISHYAMGWYTQAPGTESELVAAISRRGGSTYYADSVKGRFTISRDNAKNTVYLQLNSLKPEDTAVYYCNAVRAGGYTEFNYWGQGTQVTVSS,high polyreactivity
19,QVQLVESGGGLFQAGGSHRLSCAATGINFSEYAMGWYRQAPGKERELVAAISKSSGSTRYADSVKGRFTISRDNAKNTVFLQMNSLNPEDTAVYYCAARQYGPRYTYYYWGQGTQVTVSS,high polyreactivity
20,QVQLVESGGGLVQAGGSLRLSCAASGITFITYAMGWYRQAPGKERELVAAISIRGGSTYYADSVKGRFTISRDNAKNTVYLQMNSLKPEDTAVYYCAKDNRSYTYDYWGQGTQVTVSS,low polyreactivity
